Reference: paper PMC11883961

Biological target: T1, MAPRE1 (native MS), Q15691
T1 chain: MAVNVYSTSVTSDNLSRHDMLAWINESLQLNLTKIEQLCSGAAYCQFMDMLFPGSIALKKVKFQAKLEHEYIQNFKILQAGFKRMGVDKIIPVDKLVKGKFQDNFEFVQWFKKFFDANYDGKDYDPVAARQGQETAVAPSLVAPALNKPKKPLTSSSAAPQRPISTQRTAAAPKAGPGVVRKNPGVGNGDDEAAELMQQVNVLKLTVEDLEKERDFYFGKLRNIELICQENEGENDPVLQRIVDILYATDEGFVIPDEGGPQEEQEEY
Test: native MS
Settings: remark: other sources report otherwise

stoichiometry N: 2
B1: MAPRE1 (native MS), Q15691 1-268 (natural protein)
chain: MAVNVYSTSVTSDNLSRHDMLAWINESLQLNLTKIEQLCSGAAYCQFMDMLFPGSIALKKVKFQAKLEHEYIQNFKILQAGFKRMGVDKIIPVDKLVKGKFQDNFEFVQWFKKFFDANYDGKDYDPVAARQGQETAVAPSLVAPALNKPKKPLTSSSAAPQRPISTQRTAAAPKAGPGVVRKNPGVGNGDDEAAELMQQVNVLKLTVEDLEKERDFYFGKLRNIELICQENEGENDPVLQRIVDILYATDEGFVIPDEGGPQEEQEEY
